Test results from the supplement of paper PMC11908140.

B1: library; numbered along this chain (parent)
chain: MRKPRAAVGSGHRKQAASQEGRQKHAKNNSQAKPSACDGLARQPEEVVLQASVSSYHLFRDVAEVTAFRGSLLSWYDQEKRDLPWRRRAEDEMDLDRRAYAVWVSEVMLQQTQVATVINYYTGWMQKWPTLQDLASASLEEVNQLWAGLGYYSRGRRLQEGARKVVEELGGHMPRTAETLQQLLPGVGRYTAGAIASIAFGQATGVVDGNVARVLCRVRAIGADPSSTLVSQQLWGLAQQLVDPARPGDFNQAAMELGATVCTPQRPLCSQCPVESLCRARQRVEQEQLLASGSLSGSPDVEECAPNTGQCHLCLPPSEPWDQTLGVVNFPRKASRKPPREESSATCVLEQPGALGAQILLVQRPNSGLLAGLWEFPSVTWEPSEQLQRKALLQELQRWAGPLPATHLRHLGEVVHTFSHIKLTYQVYGLALEGQTPVTTVPPGARWLTQEEFHTAAVSTAMKKVFRVYQGQQPGTCMGSKRSQVSSPCSRKKPRMGQQVLDNFFRSHISTDAHSLNSAAQ

Variants of: B1
Experiment: 8OG:A repair function score (normalized; synonymous = 0, nonsense = -1) (normalized log-likelihood score); higher = more repair activity (WT-like)
Conditions: with 8OG:A DNA repair reporter (GFP) in HEK-293 MUTYH KO cells
Method: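 Saturation mutagenesis (NNN codon scan) of the MUTYH cDNA (521-aa nuclear isoform NM_001048174.1 / NP_001041639), stably expressed under doxycycline induction in HEK-293 MUTYH knockout cells. Cells were co-transfected with an 8OG:A-bearing GFP repair reporter plus mCherry and sorted 72 h later into GFP+ and GFP− bins, three replicates per tile. The Rosace log2 enrichment (GFP+ vs GFP−) was converted per tile to a normalized function score with synonymous variants centered at 0 and nonsense variants (codons 1-471) at -1; low-abundance variants were removed.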

8OG:A repair function score of substitutions, site by site:
L83: C -0.323; W -0.827; Q -0.947; D -1.02; K -0.987; T -0.104; I -0.196; V -0.316; E -0.902; S -0.387; H -0.597; R -0.559; P -0.673; G -0.971; N -0.585; A -0.379; F -0.285; Y -0.478; M -0.533
R81: S -0.535; H -0.3; W -0.422; A -0.345; G -0.905; I -0.704; Q -0.483; V -0.851; N -0.365; P -0.88; F -1.5; D -0.524; E -0.678; L -0.31; M -0.492; Y -0.359; T -0.765; C -1.02; K -0.209
R87: L -0.0416; F -0.0196; N -0.000681; Y -0.052; W -0.0564; M -0.0864; Q -0.219; E -0.0603; H -0.0676; P -0.0432; I -0.0226; A -0.0289; T -0.0213; V -0.0326; S 0.00689; K 0.00471; G -0.0274; D -0.0278; C -0.0638
E90: Y -0.107; M 0.0018; P -0.164; G 0.00689; C -0.00217; T -0.0178; H -0.0294; I -0.0086; F -0.0713; A 0.00572; W -0.0857; N -0.0107; Q -0.0474; L 0.0056; V 0.0003; S -0.0214; D 0.000961; K 0.00313; R 0.0046
D91: N -0.0978; L 0.00629; G -0.00708; P -0.0949; A 0.0065; I 0.00656; K 0.00215; E -0.0053; F 0.00319; H 0.0064; Q -0.103; C -0.0114; M 0.00436; R 0.00216
R86: S -1.03; Q -2.68; Y -1.03; E -2.16; F -1.75; L -0.926; P -0.841; W -1.23; I -0.915; H -1.85; V -1.33; N -1.17; A -0.934; T -0.606; G -1.82; M -1.93; C -0.587; D -1.26; K -0.756
E79: H -0.0574; L -0.0186; R 0.00654; I 0.00691; N -0.0384; Q -0.0185; T 0.00587; C -0.0344; S -0.00165; F 0.000542; P -0.189; D -0.145; Y -0.00762; G -0.00351; V -0.000865; A 0.00477; W -0.0018; K 0.0062; M -0.00235
W75: V -1.78; L -2.04; A -1.3; Q -1.46; P -3.8; H -0.412; K -1.2; E -1.57; T -3.63; Y -0.448; S -1.58; M -1.05; I -2.41; R -1.13; G -1.2; F -0.21; N -2.91; C -1.25; D -3.7
K80: T -0.469; Y -0.271; N -0.162; S -0.227; Q -0.0315; W -0.847; L -0.278; I -0.35; R -0.0152; P -0.105; H 0.00371; V -0.423; C -0.0206; M -0.162; D -1.37; F -0.364; A -7.55e-05; G -0.194; E -0.31
R88: V -0.0028; L 0.00676; K -0.364; G -0.107; I 0.00568; Q -0.0232; S -0.00167; P -0.00404; C -0.0122; T 0.00666; M -0.0202; W -0.0355; H 0.0048; E -0.00364; N -0.0146; A 0.00657; F -0.00866; D -0.0653; Y -0.0224
A89: M 0.00504; P -0.00485; Q -0.0663; G -0.0247; Y -0.00929; C -0.0299; N -0.00625; I -0.0304; V 0.00684; R -0.0424; D -0.0385; E -0.00662; W -0.0308; H 0.00693; L 0.00692; T -0.00868; K -0.0427; F -0.0315; S 0.00694
Q78: M -0.517; W -0.0301; E 0.00685; Y -0.12; C -0.996; G -0.0331; A -0.00817; V 0.00652; F -0.0455; T -0.00936; H -0.0658; L -0.0196; R 0.00285; S 0.00682; P -0.138; K -0.0833; I -0.00974; D -0.00768; N -0.105
D82: K -0.079; W -0.00177; F -0.22; C -0.0489; S -0.0969; E -0.035; Y -0.0661; G -0.0955; V -0.0236; Q -0.0442; T -0.0186; H -0.148; R -0.0624; M -0.077; P -0.00741; A -0.0548; I -0.0384; N 0.00375; L -0.0723
D77: T -0.0415; F -0.0355; Q -0.0294; A -0.0463; C -0.0754; L -0.131; H -0.228; S -0.0758; K -0.0637; R -0.122; W -0.0696; E -0.0615; P -0.464; M -0.0782; Y -0.0402; V -0.0835; G -0.0368; I -0.0954; N -0.122
P84: A -0.138; L -0.233; M -1.8; G -0.775; F -0.723; C -0.445; W -1.29; N -0.796; K -0.876; D -0.332; Y -0.697; S -0.324; Q -0.242; T -0.154; R -1.06; E -0.125; V -0.206; I -0.257; H -0.482
W85: D -1.51; G -2.15; N -1.55; F -0.238; P -1.05; L -0.917; R -1.51; Q -1.14; Y -0.864; E -1.28; V -1.12; S -1.22; K -3; M -0.682; H -2.53; C -1.57; I -0.792; A -1.08; T -1.61
Y76: F -0.0268; D -1.25; C -1.48; I -1.28; T -1.06; A -1.05; K -1.41; E -1.5; S -1.16; R -1.37; G -1.14; H -0.27; P -1.8; N -1.1; M -1.2; V -1.41; W -0.136; L -1.17; Q -1.53
S74: W -0.0127; I -0.0694; H 0.00229; G -0.00226; L -0.0187; K -0.0253; P 0.00278; E 0.00141; N -0.0112; M 0.00605; T -0.0089; V -0.0223; F -0.0182; R 0.00425; Q 0.00637; Y 0.00544
